Test results: US20250082770A1 (SYNAFFIX B V, published 2025)

Columns and labels:
CEACAM5 on MKN-45 cells = molecular target: T1, CEACAM5 on MKN-45 cells (UniProt P06731 35-702, limits assumed); assay: cell-based or functional assay
T1 sequence (looked up): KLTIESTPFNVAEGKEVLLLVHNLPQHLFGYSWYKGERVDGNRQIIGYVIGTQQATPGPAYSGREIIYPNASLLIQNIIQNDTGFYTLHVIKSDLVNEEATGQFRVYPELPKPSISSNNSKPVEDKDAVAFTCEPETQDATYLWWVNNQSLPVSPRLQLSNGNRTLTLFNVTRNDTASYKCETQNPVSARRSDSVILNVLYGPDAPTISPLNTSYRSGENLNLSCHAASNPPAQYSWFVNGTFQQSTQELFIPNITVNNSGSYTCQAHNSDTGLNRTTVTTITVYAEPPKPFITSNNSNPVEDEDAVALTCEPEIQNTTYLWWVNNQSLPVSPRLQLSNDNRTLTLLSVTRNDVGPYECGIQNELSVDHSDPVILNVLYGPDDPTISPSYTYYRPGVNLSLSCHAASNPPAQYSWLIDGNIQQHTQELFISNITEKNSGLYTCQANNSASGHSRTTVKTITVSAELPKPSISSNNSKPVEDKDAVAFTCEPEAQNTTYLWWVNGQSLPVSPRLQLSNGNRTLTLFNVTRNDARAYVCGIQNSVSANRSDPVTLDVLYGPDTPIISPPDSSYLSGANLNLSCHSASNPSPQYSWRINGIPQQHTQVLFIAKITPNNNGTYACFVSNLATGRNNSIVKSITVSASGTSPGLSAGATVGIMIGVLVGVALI

[1] = molecular target: T2, Human CEACAM5 (CD66e protein, His Tag, Sino Biological) (human, UniProt P06731 35-685); assay: ELISA, His-tagged antigen on nickel NTA plate, anti-human IgG-HRP detection
T2 construct: Bought His-tagged protein captured on nickel NTA plates; also called hCEACAM5; hCD66e; not shown: His tag
T2 sequence (looked up): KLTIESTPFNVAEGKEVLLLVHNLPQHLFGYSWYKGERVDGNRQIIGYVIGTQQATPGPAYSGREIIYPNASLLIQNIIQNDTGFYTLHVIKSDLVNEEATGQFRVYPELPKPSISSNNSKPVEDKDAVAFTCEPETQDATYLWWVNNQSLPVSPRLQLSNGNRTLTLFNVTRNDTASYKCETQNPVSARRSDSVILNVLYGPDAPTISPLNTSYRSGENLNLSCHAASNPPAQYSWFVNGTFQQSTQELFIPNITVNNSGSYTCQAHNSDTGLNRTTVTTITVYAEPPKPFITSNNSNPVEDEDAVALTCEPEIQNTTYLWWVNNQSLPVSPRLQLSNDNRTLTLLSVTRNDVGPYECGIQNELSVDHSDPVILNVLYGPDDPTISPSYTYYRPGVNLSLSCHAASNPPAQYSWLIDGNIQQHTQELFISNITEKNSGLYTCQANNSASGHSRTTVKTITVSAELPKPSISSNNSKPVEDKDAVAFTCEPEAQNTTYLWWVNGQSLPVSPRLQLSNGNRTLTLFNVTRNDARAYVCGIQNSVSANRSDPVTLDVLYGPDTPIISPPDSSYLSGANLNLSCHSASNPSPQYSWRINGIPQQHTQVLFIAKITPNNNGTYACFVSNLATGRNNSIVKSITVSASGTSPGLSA
Description: (§1) Nickel NTA plates (Pierce™ Nickel coated plated, ThermoScientific™) were washed three times prior to use. Human CEACAM5 (CD66e protein, His Tag, Sino Biological), human CEACAM6 (CD66c protein, His Tag, Sino Biological) and cynomolgus CEACAM5 (CD66e protein, His Tag, Sino Biological) were dissolved at a concentration of 0.05 μg/mL in 0.1% BSA in PBS (PBA). 100 μL was added to each well and incubated while shaking for 1 hour at room temperature. After removal, the plate was washed 3× with 0.05% Tween-20 in PBS (washing buffer). ADCs were diluted in 0.1% PBA to a final concentration of 8 μg/mL and 100 μL was added to each well (in triplo). ADCs were incubated for 1 h at room temperature. Prior to the addition of 100 μL 1:100 dilution of secondary antibody (Goat anti-human IgG, HRP conjugate, Invitrogen) the plate was washed 3× with washing buffer. The plate was incubated again for 1 h at room temperature and subsequently washed 3× with washing buffer and 3× with PBS. Finally, 100 μL TMB ELISA substrate (1 Step™ Turbo TMB ELISA substrate, ThermoScientific™) was added and incubated for 1 minute. The absorbance of the colorimetric signal was measured with Infinite® M1000 (Tecan) at 605 nm. Data was plotted corrected for the background (see FIGS. 9).

[2] = molecular target: T3, human CEACAM6 (CD66c protein, His Tag, Sino Biological) (human, UniProt P40199 35-320); assay: as above
T3 construct: Bought His-tagged protein captured on nickel NTA plates; also called hCEACAM6; hCD66c; not shown: His tag
T3 sequence (looked up): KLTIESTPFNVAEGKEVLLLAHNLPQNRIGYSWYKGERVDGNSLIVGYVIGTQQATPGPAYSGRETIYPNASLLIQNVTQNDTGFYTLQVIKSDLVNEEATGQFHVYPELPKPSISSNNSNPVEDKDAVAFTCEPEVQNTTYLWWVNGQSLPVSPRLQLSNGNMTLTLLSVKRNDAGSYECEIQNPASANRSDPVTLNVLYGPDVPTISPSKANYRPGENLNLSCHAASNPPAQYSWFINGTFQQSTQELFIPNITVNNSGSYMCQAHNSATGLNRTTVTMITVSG
Description: as §1

B1: B12-3 (antibody, human IgG1, kappa, V domains shown)
VH: QVQLVQSGAEVKKPGASVKVSCQASGYRFSNFVIHWVRQAPGQRFEWMGWINPYNGNKEFSAKFQDRVTFTADTSANTAYMELRSLRSADTAVYYCARVGPYSWDDSPQDNYYMDVWGKGTTVIVSS
VL: EIVLTQSPGTLSLSPGERATFSCRSSHSIRSRRVAWYQHKPGQAPRLVIHGVSNRASGISDRFSGSGSGTDFTLTITRVEPEDFALYYCQVYGASSYTFGQGTKLERKR
modifications: heavy-chain glycan trimmed to core GlcNAc, 6-N3-GalNAc attached and reacted with BCN-HS-PEG2-HS-(va-PAB-Ex)2 3 (exatecan payload); average DAR 3.75
CEACAM5 on MKN-45 cells
  MKN-45, IC50: > 100 nM

B2: labetuzumab-3 (antibody, human IgG1, kappa, V domains shown)
VH: EVQLVESGGGVVQPGRSLRLSCSASGFDFTTYWMSWVRQAPGKGLEWIGEIHPDSSTINYAPSLKDRFTISRDNAKNTLFLQMDSLRPEDTGVYFCASLYFGFPWFAYWGQGTPVTVSS
VL: DIQLTQSPSSLSASVGDRVTITCKASQDVGTSVAWYQQKPGKAPKLLIYWTSTRHTGVPSRFSGSGSGTDFTFTISSLQPEDIATYYCQQYSLYRSFGQGTKVEIKR
modifications: heavy-chain glycan trimmed to core GlcNAc, 6-N3-GalNAc attached and reacted with BCN-HS-PEG2-HS-(va-PAB-Ex)2 3 (exatecan payload); average DAR 3.90
CEACAM5 on MKN-45 cells
  MKN-45, IC50: 6.5 nM

B3: labetuzumab (antibody, human IgG1, kappa, V domains shown)
VH: B2 VH
VL: B2 VL
notes: IgG transiently expressed in CHO K1 cells; also called labetuzumab (II); hMN-14
[1]
  binding result: binds
[2]
  binding result: no binding (tested: 8 µg/mL)

B4: tusamitamab-DM4 (antibody, human IgG1, kappa, V domains shown)
VH: EVQLQESGPGLVKPGGSLSLSCAASGFVFSSYDMSWVRQTPERGLEWVAYISSGGGITYAPSTVKGRFTVSRDNAKNTLYLQMNSLTSEDTAVYYCAAHYFGSSGPFAYWGQGTLVTVSS
VL: DIQMTQSPASLSASVDRVTITCRASENIFSYLAWYQQKPGKSPKLLVYNTRTLAEGVPSRFSGSGSGTDFSLTISSLQPEDFATYYCQHHYGTPFTFGSGTKLEIKR
modifications: SPDB-DM4 conjugated, sites not stated; average DAR 3.4
CEACAM5 on MKN-45 cells
  MKN-45, IC50: 2.6 nM

B5: tusamitamab (antibody, human IgG1, kappa, V domains shown)
VH: B4 VH
VL: B4 VL
notes: IgG transiently expressed in CHO K1 cells; also called tusamitamab (I); huMAb2-3
[2]
  binding result: no binding (tested: 8 µg/mL)

B6: tusamitamab-6 (antibody, human IgG1, kappa, V domains shown)
VH: B4 VH
VL: B4 VL
modifications: heavy-chain glycan trimmed to core GlcNAc, 6-N3-GalNAc attached and reacted with BCN-HS-PEG2-HS-(vc-PABA-Ahx-May)2 6 (maytansinoid payload); average DAR 3.85
CEACAM5 on MKN-45 cells
  MKN-45, IC50: 0.88 nM

B7: tusamitamab-3 (antibody, human IgG1, kappa, V domains shown)
VH: B4 VH
VL: B4 VL
modifications: heavy-chain glycan trimmed to core GlcNAc, 6-N3-GalNAc attached and reacted with BCN-HS-PEG2-HS-(va-PAB-Ex)2 3 (exatecan payload); average DAR 3.89
CEACAM5 on MKN-45 cells
  MKN-45, IC50: 3.4 nM
